According to US5985273A, “Biological control of insects” (priority 1994, dated 1999):

Key:
[1] = system: Lucilia cuprina larvae; assay: Growth and survival of first instar sheep blowfly larvae on culture medium with inhibitor; format: in vivo; conditions: for Effect on larval growth, summary in words: Example 1, Table 1.2; for % Growth Inhibition / Average Larval Weight: Table 2.2; for Average Larval Weight: control 10.26
[2] = system: Tribolium castaneum; assay: Growth and survival of Tribolium castaneum in treated flour; format: in vivo; conditions: Day 6; all dose levels
Protocol: Insects were cultured in cleaned, ground and sieved wholemeal flour made from organic wheat. Inhibitors from bottles of pre-weighed material were dry-mixed with the flour and residual inhibitor rinsed from bottles with a small volume of water. Rinse water was added to the flour and the mixture re-ground. The impregnated flour was transferred to a 20 mL vial and mixed thoroughly by shaking and inverting. Adults of T. castaneum were allowed to oviposit on flour, eggs were sifted from the flour and transferred one by one with a single hair to microwell tubes containing a small amount of flour. Each level of treatment was performed in triplicated using 32 wells/replicate. Assays were performed in triplicated. Cultures were incubated at 30° C. and 55% R H. After 6 days each replicate of 32 wells was combined, the larvae counted and the numbers compared with numbers in the control (no inhibitor) treatment. Larvae were classified as "small" if appreciably smaller than reference larvae, or abnormal if unusual behaviour or formation were observed (eg. twisting or twisted larvae). Test inhibitors and dose rates were the same as those used in Example 4.

[3] = system: Teleogryllus commodus; assay: Mortality of black field cricket nymphs on treated cabbage leaf disks; format: in vivo; conditions: after 7 days
Protocol: (i) Stock solutions of inhibitors and control solutions were prepared as aqueous solutions or suspensions as outlined in Table 6.1.
(ii) Mortality was assessed by commencing the study with 1st instar nymphs.
(iii) Cabbage leaf disks (5×8 mm diameter disks/treatment) were smeared with 100 μl of inhibitor or control stock solutions and allowed to dry. Disks were placed singly in 40 mm petri dishes, together with a moist cotton wool pas as water supply and a piece of fluted plastic for shelter.
(iv) Ten nymphs were placed on each disc and the dishes incubated at 25° C.
(v) Mortality was assessed daily and any dead individuals removed.

[4] = system: O. surinamensis larvae; assay: Weight reduction of Oryzaephylus surinamensis larvae in treated flour; format: in vivo
Protocol: Insects were cultured in cleaned, ground and sieved wholemeal flour made from organic wheat. Inhibitors from bottles of pre-weighed material were dry-mixed with the flour and residual inhibitor rinsed from bottles with a small volume of water. Rinse water was added to the flour and the mixture re-ground. The impregnated flour was transferred to a 20 mL vial and mixed thoroughly by shaking and inverting.
Adults of T. castaneum were allowed to oviposit on flour, eggs were sifted from the flour and transferred one by one with a single hair to microwell tubes containing a small amount of flour. Each level of treatment was performed in triplicated using 32 wells/replicate. Assays were performed in triplicated. Cultures were incubated at 30° C. and 55% R H.
The bioassay for this insect was outlined for T. castaneum, except incubations were conducted at 32.5° C. and 70% R H. After 8 days the insects were sieved from the flour and weighed.

[5] = system: Ctenocephalides felis; assay: Development of cat flea eggs in dried blood diets; format: in vivo; conditions: Day 16
Protocol: Blood was collected from the jugular vein of a five year old merino sheep that had not been treated with an ectoparasitic agent for 18 months. The blood was collected into a 100 ml plastic bottle containing 0.8 ml of heparin and was maintained at 4° C. Inhibitors were pre-weighed into sterile 5 ml plastic vials and 4.5 ml of blood added. The samples were mixed, placed at -70° C. for 24 hours, then freeze-dried. The freeze-dried samples were sieved through a stainless steel 63 micron sieve, and placed into sterile 5 ml plastic vials (0.15 g/per tube). Four flea eggs were placed into each vial, and a sheet of tissue paper fastened by an elastic band was fitted to the top of each vial. The vials were incubated at 25° C. and 70-80% R H for 6 days. Vermiculite was then added to each vial to provide a supporting medium for the fleas to pupate and the tubes incubated at 25° C. and 70-80% R H, for a further 10 days. Ten control vials and three vials of each treatment were tested.
At the conclusion of the incubation period the vials were placed at -20° C. for 24 hours to kill the fleas. The number of eggs hatched and the life-cycle state was recorded.

[6] = system: Heliothis punctigens larvae; assay: Growth and survival of cotton budworm larvae fed an artificial diet; format: in vivo; conditions: 10 days; for % Alive: control 70.0
Protocol: 1. The Haricot beans were cooked in a microwave for 40 minutes. 2. Agar was added to the hot water and stirred on a hot plate until almost boiling. 3. The haricot beans, agar mix, yeast and wheat germ was blended in an electric mixer for 3 minutes. 4. When the temperature has dropped to 60°C., the acids were added and mixed with the media. […] Inhibitor solutions or an equal volume of water were placed into sterilized glass tubes at designated concentrations. The artificial media was added to each tube (1.5 ml) using a sterile 10 ml syringe. First instar Heliothis punctigens larvae (1 larvae per tube) were added to the glass tubes and the tubes were capped. The tubes were incubated for 10 days at 25° C. The larvae were killed by placing the glass tubes at -70° C. for 24 hours, and then individually weighed. Percentage inhibition was calculated by comparison to control larvae.

[7] = system: European corn borer (ECB) neonatal larvae; conditions: 20 mg/ml of diet; laboratory assay; cited from earlier work
[8] = system: Southern corn rootworm (SCR) neonatal larvae; conditions: 20 mg/ml of diet; laboratory assay; cited from earlier work
[9] = system: Colorado potato beetle larvae; conditions: fed on potato leaves; cited from earlier work
[10] = system: Bovicola ovis (Hartley strain); assay: Survival of sheep lice on inhibitor treated wool; format: in vivo; conditions: of 10 lice, 24 Hours at 35° C.
[11] = system: L. cuprina eggs; assay: Egg hatch of L. cuprina on liver in vitro; format: in vivo, Lucilia cuprina; conditions: 0.17 mM; 24 hours at 35° C.; control 71
Protocol: L. cuprina eggs were placed on pieces of liver (0.9 g) which were then placed in individual wells of a 24-well tissue culture plate. Phosphate buffered saline (PBS, 0.1 ml) containing inhibitors at set concentrations were added to each well with 30 freshly laid and sterilised eggs of L. cuprina. The culture plate was then maintained in a sterile environment at 35° C. for 24 hours, after which time the percentage hatch was assessed.

Molecule: c1cnc2c(c1)ccc1cccnc12 [1,10-phenanthroline]
- Effect on larval growth, summary in words [1]: effective growth inhibitors
- Larval survival ([1]; first instar larvae, tested at 1, 2.5, 5 mM): All larvae died
- Larval size classification [2]: normal
- Mortality (class) ([3]; 5-20 mM): Medium (medium 21-40%)
- inhibition at 5000 µM ([4]; 192 h, 5 mM, 8 days, relative to untreated larvae, read-out: Percentage Growth Inhibition): 100%
- inhibition at 10000 µM ([4]; 192 h, 10 mM, 8 days, relative to untreated larvae, read-out: Percentage Growth Inhibition): 63%
- inhibition at 20000 µM ([4]; 192 h, 20 mM, 8 days, relative to untreated larvae, read-out: Percentage Growth Inhibition): 95%
- Growth inhibition, summary in words ([4]; text summary of Table 9.1): highly effective

Molecule: CCCCC[C@H](CC(=O)NO)C(=O)N[C@H](C(=O)N1CCC[C@H]1CO)C(C)C [Actinonin]
- Percentage of Fleas Progressing Through to Pupation ([5]; 1.40 mg in 4.5 ml of blood): 0%
- Percentage of Fleas Progressing Through to Pupation ([5]; 2.80 mg in 4.5 ml of blood): 16.8%
- Effect on larval growth, summary in words [1]: effective growth inhibitors
- inhibition at 2500 µM ([1]; Lucilia cuprina, first instar larvae, 2.5 mM): 83%
- inhibition at 10000 µM ([1]; Lucilia cuprina, first instar larvae, 10 mM): 95%
- Larval size classification [2]: small
- Mortality (class) ([3]; 5 mM): None (none/low, 10-20% mortality)
- % Alive ([6]; 2.5 mM): 33.3%
- % Alive ([6]; 5.0 mM): 0.00%
- inhibition at 2500 µM ([6]; Heliothis, 240 h, 2.5 mM, read-out: % Growth Inhibition): 97.5%
- inhibition at 5000 µM ([6]; Heliothis, 240 h, 5.0 mM, read-out: % Growth Inhibition): 100%

Molecule: aprotinin
- Neonatal larvae killed [7]: 100%
- Neonatal larvae killed [8]: 60%

B1: Soybean Trypsin Inhibitor (protein, UniProt P01070 25-205, looked up)
Trypsin inhibitor A: DFVLDNEGNPLENGGTYYILSDITAFGGIRAAPTGNERCPLTVVQSRNELDKGIGTIISSPYRIRFIAEGHPLSLKFDSFAVIMLCVGIPTEWSVVEDLPEGPAVKIGENKDAMDGWFRLERVSDDEFNNYKLVFCPQQAEDDKCGDIGISIDHDDGTRRLVVSKNKPLVVQFQKLDKESL
- Growth retardation [9]: ineffective
- Number of Living Lice ([10]; Adult, 0.17 mM): 4
- Number of Living Lice ([10]; Adult, 0.34 mM): 0
- Number of Living Lice ([10]; Adult, 0.68 mM): 0
- Number of Living Lice ([10]; instar 1, 0.17 mM): 1
- Number of Living Lice ([10]; instar 1, 0.34 mM): 1
- Number of Living Lice ([10]; instar 1, 0.68 mM): 0
- Number of Living Lice ([10]; instar 2, 0.17 mM): 2
- Number of Living Lice ([10]; instar 2, 0.34 mM): 0
- Number of Living Lice ([10]; instar 2, 0.68 mM): 0
- Number of Living Lice ([10]; instar 3, 0.17 mM): 2
- Number of Living Lice ([10]; instar 3, 0.34 mM): 4
- Number of Living Lice ([10]; instar 3, 0.68 mM): 0
- Percentage of Fleas Progressing Through to Pupation ([5]; 5.0 mg in 4.5 ml of blood): 0%
- Percentage of Fleas Progressing Through to Pupation ([5]; 10.0 mg in 4.5 ml of blood): 0%
- % Growth Inhibition ([1]; 0.0425 mM): -22.5%
- Average Larval Weight ([1]; 0.0425 mM): 12.57 10^-4 g
- % Growth Inhibition ([1]; 0.085 mM): 28.5%
- Average Larval Weight ([1]; 0.085 mM): 7.34 10^-4 g
- % Growth Inhibition ([1]; 0.170 mM): 45.1%
- Average Larval Weight ([1]; 0.170 mM): 5.63 10^-4 g
- % Growth Inhibition ([1]; 0.340 mM): 69.3%
- Average Larval Weight ([1]; 0.340 mM): 3.15 10^-4 g
- % Growth Inhibition ([1]; 0.680 mM): 70.6%
- Average Larval Weight ([1]; 0.680 mM): 3.02 10^-4 g
- Growth Inhibition ([1]; first instar larvae, 0.17 mM): 76%
- Growth Inhibition ([1]; first instar larvae, 0.40 mM): 64%
- % Hatch [11]: 17%
- Mortality (class) ([3]; 0.17-0.68 mM): None (none/low, 10-20% mortality)
- Percentage Growth Inhibition ([4]; 0.17 mM, 8 days, relative to untreated larvae): 12%
- Percentage Growth Inhibition ([4]; 0.34 mM, 8 days, relative to untreated larvae): 30%
- Percentage Growth Inhibition ([4]; 0.68 mM, 8 days, relative to untreated larvae): 46%
